In assay [1] the target is T1, human angiopoietin-2 (human, UniProt O15123 19-496, limits assumed).
T1 construct: Bought recombinant protein with a His tag (detected by anti-HIS-tag antibody); also called human Ang-2; hAng-2
T1 sequence (looked up): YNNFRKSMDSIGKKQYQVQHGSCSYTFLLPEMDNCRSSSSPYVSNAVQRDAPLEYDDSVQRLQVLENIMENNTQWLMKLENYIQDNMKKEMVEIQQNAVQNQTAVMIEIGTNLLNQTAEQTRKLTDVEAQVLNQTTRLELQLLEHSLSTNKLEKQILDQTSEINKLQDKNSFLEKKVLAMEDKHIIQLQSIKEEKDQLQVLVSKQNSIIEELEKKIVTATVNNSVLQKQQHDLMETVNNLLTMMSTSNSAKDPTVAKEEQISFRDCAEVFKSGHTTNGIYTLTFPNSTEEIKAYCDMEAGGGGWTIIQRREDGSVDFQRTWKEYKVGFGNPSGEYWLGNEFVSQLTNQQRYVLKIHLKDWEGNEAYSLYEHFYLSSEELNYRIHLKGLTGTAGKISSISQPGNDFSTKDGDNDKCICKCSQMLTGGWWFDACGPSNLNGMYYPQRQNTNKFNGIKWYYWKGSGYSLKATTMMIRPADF
Description: SPR Biacore T200; biotinylated SEQ ID NO: 16 captured, hAng-2 analyte. As for the experimental part: (§1) In the SPR affinity assay, biotinylated muteins and negative control were captured on a sensor chip CAP using the Biotin CAPture Kit (GE Healthcare): Sensor Chip CAP is pre-immobilized with an ssDNA oligo. Undiluted Biotin CAPture Reagent (streptavidin conjugated with the complementary ss-DNA oligo) was applied at a flow rate of 2 μl/min for 300 s. Subsequently, 0.02 μg/mL of biotinylated muteins or negative control were applied for 300 s at a flow rate of 5 μl/min. […] The reference channel was loaded with Biotin CAPture Reagent only.
(§2) Applying a flow rate of 30 μL/min, a multi cycle kinetics approach was used with a sample contact time of 180 s and a dissociation time of 4600 s. All measurements were performed at 25° C. […] Data were evaluated with Biacore T200 Evaluation software (V 1.0). Double referencing was used. A 1:1 Binding model was used to fit the raw data even though the analyte was known to be a multimer.
Background: Surface plasmon resonance follows binding to a sensor surface in real time, without labels.

For assay [2], the target named is T1, human angiopoietin-2. Description: cell-based or functional assay.
A further assay has as its target T2, human angiopoietin-1 (human, UniProt Q15389 20-498, limits assumed).
T2 construct: Bought recombinant protein; also called human Ang-1; hAng-1
T2 sequence (looked up): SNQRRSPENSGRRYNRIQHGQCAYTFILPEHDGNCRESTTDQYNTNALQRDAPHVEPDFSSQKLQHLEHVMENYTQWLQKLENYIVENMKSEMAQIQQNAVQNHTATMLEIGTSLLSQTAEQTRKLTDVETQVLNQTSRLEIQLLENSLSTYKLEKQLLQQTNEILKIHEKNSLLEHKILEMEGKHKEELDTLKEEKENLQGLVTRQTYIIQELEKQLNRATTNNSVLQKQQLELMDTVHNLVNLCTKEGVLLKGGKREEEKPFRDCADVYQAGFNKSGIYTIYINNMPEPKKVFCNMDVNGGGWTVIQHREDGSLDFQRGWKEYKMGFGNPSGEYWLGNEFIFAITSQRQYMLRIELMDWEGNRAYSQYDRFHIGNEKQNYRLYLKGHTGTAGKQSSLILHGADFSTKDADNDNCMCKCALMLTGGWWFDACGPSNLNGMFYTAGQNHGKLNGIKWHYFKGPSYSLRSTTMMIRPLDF
Description: competition ELISA format (FIG. 2). As for the experimental part:
In the following detailed experimental protocol, incubation and washing steps were performed as described above in the competition ELISA protocol (see Example 5).

For assay [3], the target named is T1, human angiopoietin-2. Description: ELISA; Ang-2 coated, mutein detected by anti-Streptag-HRP. As for the experimental part:
Binding of muteins was tested by a sandwich ELISA assay.
20 μl of serially diluted muteins were incubated in PBS-T/BSA for 1h at room temperature (RT).
The residual supernatants were discarded and 20 μl HRP-labeled anti-Streptag antibody was added at a predetermined optimal concentration in PBS-T/BSA and incubated for 1 h at RT. After washing, 20 μl fluorogenic HRP substrate (QuantaBlu, Thermo) was added to each well, and the reaction was allowed to proceed for 15 to 60 minutes. The fluorescence intensity of every well on the plate was read using a fluorescence microplate reader (Tecan or Molecular Devices). Curve fitting was performed using GraphPad Prism 4 software.
Background: ELISA stands for enzyme-linked immunosorbent assay.

Assay [4] has as its target T1, human angiopoietin-2. Description: SPR Biacore T200; upper end of the range, tied to SEQ ID NO: 7 by Table 3. As for the experimental part:
as §1, §2

Assay [5] deals with T1, human angiopoietin-2. Description: SPR Biacore T200; biotinylated mutein captured, hAng-2 analyte, 1:1 model, 25 C. The method, then: as §1, §2
The target of assay [6] is T1, human angiopoietin-2. Description: competition ELISA; 0.5 nM hAng-2 pre-incubated with binder, free hAng-2 captured on hTie-2 Fc (competitor). As for the experimental part: All incubation steps were performed with shaking at 300 rpm, and the plate was washed after each incubation step with 80 μl PBS-T buffer (PBS, 0.05% Tween 20) for five times using a Biotek EL405 select CW washer (Biotek). In the first step, a 384 well plate was directly coated with 20 μl of soluble human hTie-2 Fc (Reliatech) at a concentration of […] in PBS over night at 4 ° C. After washing, h Tie-2 Fc coated wells were blocked with 60 μl PBS-T/BSA (2% BSA in PBS containing 0.1% Tween 20) for 1 h at room temperature.
Curve fitting was performed using GraphPad Prism 4 software.

Assay [7] deals with T1, human angiopoietin-2. Description: competition cell ECL; hAng-2 pre-incubated with binder, free Ang-2 captured on HEK:hTie-2 cells (competitor). As for the experimental part: (§3) All incubation steps were performed at room temperature, and the plate was washed after each incubation step with 80 μl PBS buffer for two times using a Biotek EL405 select CW washer (Biotek). In the first step, a 384 well plate was precoated for 5 minutes with poly D lysine and washed twice with PBS. 10⁴ HEK:hTie-2 cells per well were seeded and allowed to adhere to the surface of the wells overnight at 37° C. . After washing, cell coated wells were blocked with 60 μl PBS/Casein (2% Casein in PBS) for 1 h at room temperature.
(§4) After washing, 35 μl surfactant-free reading buffer was added to each well and the ECL signal of every well was read using a Mesoscale Discovery reader.

A further assay concerns the target T3, mouse angiopoietin-2 (mouse, UniProt O35608 19-496, limits assumed).
T3 construct: Bought recombinant protein; also called mouse Ang-2; mAng-2
T3 sequence (looked up): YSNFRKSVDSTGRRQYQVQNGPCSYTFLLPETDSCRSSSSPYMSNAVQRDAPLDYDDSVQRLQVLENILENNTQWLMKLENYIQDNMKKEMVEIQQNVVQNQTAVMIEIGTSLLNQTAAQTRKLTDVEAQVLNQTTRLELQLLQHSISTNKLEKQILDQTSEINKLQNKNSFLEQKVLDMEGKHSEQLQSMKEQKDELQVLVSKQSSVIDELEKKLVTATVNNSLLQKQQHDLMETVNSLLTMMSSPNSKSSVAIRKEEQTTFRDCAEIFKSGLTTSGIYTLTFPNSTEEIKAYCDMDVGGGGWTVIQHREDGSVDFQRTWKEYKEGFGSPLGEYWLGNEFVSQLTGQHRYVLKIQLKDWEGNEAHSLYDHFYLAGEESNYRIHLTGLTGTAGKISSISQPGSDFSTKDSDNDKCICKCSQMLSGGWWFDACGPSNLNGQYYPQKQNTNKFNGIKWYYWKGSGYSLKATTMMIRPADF
Description: competition cell ECL; mAng-2 pre-incubated with binder, free Ang-2 captured on HEK:hTie-2 cells (competitor). The method, then: as §3, §4

For assay [8], the target named is T1, human angiopoietin-2. Description: SPR Biacore T200; lower end of the range, tied to SEQ ID NO: 11 by Table 3. The method, then: as §1, §2

B1: mature hNGAL (SEQ ID NO: 16), negative control (other)
chain: QDSTSDLIPAPPLSKVPLQQNFQDNQFQGKWYVVGLAGNAILREDKDPQKMYATIYELKEDKSYNVTSVLFRKKKCDYWIRTFVPGCQPGEFTLGNIKSYPGLTSYLVRVVSTNYNQHAMVFFKKVSQNREYFKITLYGRTKELTSELKENFIRFSKSLGLPENHIVFPVPIDQCIDG
notes: Used as negative control; Biotinylated for the SPR assay; also called human lipocalin 2; human NGAL
As for B1, in the assay with human angiopoietin-2 [1], the binding result is given as “no binding (tested: human Ang-2 at 1-27 nM)”.

B2: hNGAL lipocalin mutein SEQ ID NO: 7 (designed binder)
chain: QDSTSDLIPAPPLSKVPLQQNFQDNQFHGKWYVVGHAGNYILREDKDPEKMWATIYELKEDKSYDVTEVSFGPKKCNYRIWTFVPGSQPGEFTLGGIKSPPGDTSTLVRVVSTNYNQHAMVFFKHVLQNREFFEITLYGRTKELTSELKENFIRFSKSLGLPENHIVFPVPIDQCIDGSAWSHPQFEK
notes: Mutein of mature hNGAL; Biotinylated with NHS-PEG4-Biotin for the SPR assay
By EC50 is commonly meant the concentration needed to bring the measured effect to its halfway point. The Kd is the free concentration of one partner at which half of the binding sites on the other are occupied at equilibrium, for simple one-to-one binding. The low end stands for higher affinity, the high end for lower affinity. In general, koff refers to the first-order rate constant of dissociation. A lower koff goes with a long-lived complex. A word on the IC50: it is the concentration that gives 50% inhibition. Read a high IC50 as weaker potency. Take B2: in the assay with human angiopoietin-2 [2], the “IC50 mean, LEC proliferation assay (CellTiter-Glo)” value (“IC50 mean, LEC proliferation assay” for short) was found to be 0.199 nM. Moreover, the binding result with human angiopoietin-1 was “binds”. The molecule further returned an EC50 in the assay with human angiopoietin-2 [3] of 2.1 nM. Besides, the Kd was 0.2 to 1.4 nM in the assay with human angiopoietin-2 [4] and 1.43 nM in the assay with human angiopoietin-2 [5]. The molecule also gave an off-rate (koff) with human angiopoietin-2 [5] of 0.00026 s⁻¹. For the same molecule, the IC50 with human angiopoietin-2 [6] turned out to be 0.0619 nM; in the assay with human angiopoietin-2 [7], 3.6 nM; with mouse angiopoietin-2 it was 1.23 nM.

B3: hNGAL lipocalin mutein SEQ ID NO: 8 (designed binder)
chain: QDSTSDLIPAPPLSKVPLQQNFQDNQFHGKWYVVGQAGNYILREDKDPGKMWATIYELKEDKSYDVTEVSFGAKKCNYRIWTFVPGSQPGEFTLGGIKSDPGGTSTLVRVVSTNYNQHAMVFFKHVLQNREFFEITLYGRTKELTSELKENFIRFSKSLGLPENHIVFPVPIDQCIDGSAWSHPQFEK
notes: as for B2
As to B3, the “IC50 mean, LEC proliferation assay” value with human angiopoietin-2 [2] worked out at 0.078 nM. Moreover, the binding result in the assay with human angiopoietin-1 is reported as “binds”. The molecule also gave an EC50 with human angiopoietin-2 [3] of 2.4 nM. In addition, the Kd with human angiopoietin-2 [5] was found to be 0.37 nM. In the assay with human angiopoietin-2 [5], this molecule yielded a koff of 0.00013 s⁻¹. Also, the IC50 with human angiopoietin-2 [6] is 0.0708 nM; in the assay with human angiopoietin-2 [7], 3.75 nM; with mouse angiopoietin-2 it was 1.25 nM.

B4: hNGAL lipocalin mutein SEQ ID NO: 11 (designed binder)
chain: QDSTSDLIPAPPLSKVPLQQNFQDNQFHGKWYVVGQAGNYILREDKDPVKMWATIYELKEDKSYDVTEVSFGPKKCNYRIWTFVPGSQPGEFTLGGIKSLPGGTSTLVRVVSTNYNQHAMVFFKHVLQNREFFEITLYGRTKELTSELKENFIRFSKSLGLPENHIVFPVPIDQCIDGSAWSHPQFEK
notes: as for B2
With B4, the “IC50 mean, LEC proliferation assay” value with human angiopoietin-2 [2] was found to be 0.169 nM. For the same molecule, the EC50 with human angiopoietin-2 [3] came to 2.3 nM. The Kd with human angiopoietin-2 [8] was 0.2 to 1.4 nM; with human angiopoietin-2 [5], 0.21 nM. Moreover, in the assay with human angiopoietin-2 [5], the koff was determined as 0.00087 s⁻¹. In addition, the IC50 with human angiopoietin-2 [6] is 0.0988 nM; with human angiopoietin-2 [7] it was 4.79 nM; with mouse angiopoietin-2 it was 1.45 nM.
